Assay results from article PMC6031666.

Test system: His51
Experiment: NMR
Settings: 298 K; 100 mM NaCl, 5 mM CaCl2; 20 mM deuterated MES (pH 5.5, 6.0, 6.5, 7.2, 8.5) or 20 mM deuterated Tris (pH 8.5), 0.02% NaN3; Inhibitor-bound (Bz-Nle-Lys-Arg-Arg-B(OH)2, a tetrahedral transition-state mimic), NS2B-bound, folded. Two complex forms are in equilibrium.

NS3 serine protease domain (NS3pro) in complex with NS2B cofactor segment (Dengue virus type 2 (DENV2))
pKa: remain fully protonated over the investigated pH range (5.5–8.5)
